The values below come from patent EP4471049A1 (Zealand Pharma A/S, priority 2023, dated 2024).

*1 amine or outer side, *2 acyl side, *3 side chain or, on linkers, in order; H or OH if unused. Where a SMILES comes first, the peptide text is derived from it. Bridges are numbered along the chain shown (N, C = ends). Where no end group is shown, it is not given here. [ ]: non-standard residue; d: D form. 4‑Aminomethyl‑phenylacetyl = 4-aminomethyl-phenylacetyl unit, its amine closes the lactam, O=C(Cc1ccc(CN[*:1])cc1)[*:2]; 2Nal = N[C@@H](Cc1ccc2ccccc2c1)C(=O)O; AEF = NCCOc1ccc(C[C@H](N)C(=O)O)cc1; 3Pal = N[C@@H](Cc1cccnc1)C(=O)O; αMeL = CC(C)C[C@](C)(N)C(=O)O; 3Amb = NCc1cccc(C(=O)O)c1; NMeS = CN[C@@H](CO)C(=O)O; Dab = NCC[C@H](N)C(=O)O; βAla = NCCC(=O)O

The nature of data set [1]: Peptide stability in simulated gastric fluid (SGF). The class given is in vitro ADME. To be noted: 37 °C, pH 1.2, porcine pepsin 3.2 g/L, 10 µM. The procedure: SGF was prepared by dissolving sodium chloride (0.2 g) in 50 mL of water. A volume of 0.7 mL of 10 M HCl was added to adjust the pH of the solution to 1.2 and the volume made up to 100 mL with water. […] SIF was prepared by dissolving monobasic potassium phosphate (0.68 g) in 50 mL of water and adjusting the pH to 6.8 with 1 M NaOH. The volume was subsequently made up to 100 mL with water. 200 mg porcine pancreatin (P1625, Sigma Aldrich) was gently dissolved into 20 mL preheated (37 °C) solution (10 g/L) immediately prior to the incubation.
The incubation was performed at 37 °C with gentle shaking. […] After the last timepoint, the sampling plate was mixed for 10 min on a shaking table and centrifuged 10 min at 2200 g. 70 µL resulting supernatant was diluted with 150 µL water, mixed and centrifugated before analysis by liquid chromatography high resolution mass spectrometry. […] Percent remaining at each timepoint was calculated relative to timepoint zero based on absolute peak areas.
Compounds with a SGF stability (after 4 h) above 70% are considered highly SGF stable. […] Table 3-4: SGF data

Data set [2] has as its target T1, human IL-23R endogenously expressed on DB cells (human, UniProt Q5VWK5 24-629).
T1 sequence (looked up): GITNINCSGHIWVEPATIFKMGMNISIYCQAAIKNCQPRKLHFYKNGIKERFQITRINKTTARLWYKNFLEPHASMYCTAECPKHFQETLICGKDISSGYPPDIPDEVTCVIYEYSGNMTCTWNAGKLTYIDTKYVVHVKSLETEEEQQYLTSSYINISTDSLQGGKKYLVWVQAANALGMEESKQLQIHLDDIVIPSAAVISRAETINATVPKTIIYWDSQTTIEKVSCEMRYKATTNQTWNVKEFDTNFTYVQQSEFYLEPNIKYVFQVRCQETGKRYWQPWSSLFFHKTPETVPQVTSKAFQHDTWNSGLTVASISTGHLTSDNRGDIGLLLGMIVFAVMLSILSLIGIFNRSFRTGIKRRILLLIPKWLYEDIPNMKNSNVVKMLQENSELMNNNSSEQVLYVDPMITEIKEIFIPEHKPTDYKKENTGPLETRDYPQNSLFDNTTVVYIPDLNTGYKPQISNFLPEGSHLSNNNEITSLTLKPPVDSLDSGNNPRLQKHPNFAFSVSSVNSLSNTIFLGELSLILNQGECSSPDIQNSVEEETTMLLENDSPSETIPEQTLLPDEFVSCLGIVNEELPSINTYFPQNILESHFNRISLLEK
Description: cell-based or functional assay.

The target of data set [3] is T2, Nluc-IL23R fusion protein (human, UniProt Q5VWK5 22-629).
T2 construct: range 22-629; expressed with a secretion signal in HEK293 cells; used as crude membrane preparation; also called hIL-23R; human IL-23R; not shown: Nanoluc protein from the expression plasmid N1371 (Promega), N-terminal of IL-23R
T2 sequence (looked up): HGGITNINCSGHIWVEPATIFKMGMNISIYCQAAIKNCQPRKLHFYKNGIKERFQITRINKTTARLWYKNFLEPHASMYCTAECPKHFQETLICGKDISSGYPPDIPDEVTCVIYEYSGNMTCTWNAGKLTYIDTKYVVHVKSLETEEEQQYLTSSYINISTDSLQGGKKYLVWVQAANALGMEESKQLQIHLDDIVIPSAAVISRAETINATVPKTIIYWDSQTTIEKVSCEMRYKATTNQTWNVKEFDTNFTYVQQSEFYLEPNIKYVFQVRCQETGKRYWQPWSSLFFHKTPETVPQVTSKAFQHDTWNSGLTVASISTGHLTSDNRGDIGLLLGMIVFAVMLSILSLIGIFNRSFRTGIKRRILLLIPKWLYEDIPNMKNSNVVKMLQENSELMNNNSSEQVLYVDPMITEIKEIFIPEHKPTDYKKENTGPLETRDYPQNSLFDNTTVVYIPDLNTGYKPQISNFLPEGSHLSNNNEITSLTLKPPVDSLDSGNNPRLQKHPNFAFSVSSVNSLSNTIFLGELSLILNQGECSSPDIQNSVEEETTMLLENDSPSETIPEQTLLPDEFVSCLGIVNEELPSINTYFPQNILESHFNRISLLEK
Description: BRET competition vs TAMRA-labelled peptide, Nluc-IL23R membranes. A general note: Bioluminescence resonance energy transfer reports proximity on the nanometre scale.

For the molecule `CC(C)C[C@@H]1NC(=O)[C@H](Cc2c[nH]c3ccccc23)NC(=O)[C@H](Cc2c[nH]c3ccccc23)NC(=O)[C@@H]2CSCC(=O)CSC[C@H](NC(=O)[C@H](CO)NC(=O)[C@@H](NC(=O)[C@@H](N)CC(=O)O)CCC(=O)NCCCC[C@@H](C(=O)N[C@@H](CCCNC(=N)N)C(N)=O)NC1=O)C(=O)N[C@@H](Cc1c[nH]c3ccccc13)C(=O)N[C@@H](CCC(N)=O)C(=O)N2` [Ref 4, H-DE(1c)SC(2a)WQC(2a)WWLK(1c)R-[NH2], reference compound] (HELM PEPTIDE1{D.E.S.C.W.Q.C.W.W.L.K.R.[am]}|CHEM1{[O=C(C[*:1])C[*:2]]}$PEPTIDE1,PEPTIDE1,2:R3-11:R3|PEPTIDE1,CHEM1,4:R3-1:R1|PEPTIDE1,CHEM1,7:R3-1:R2$$$V2.0), in data set [1], the “SGF (% remaining 1 h)” value is 1% and the “SGF (% remaining 4 h)” value is 0%.
The like results for `CC(=O)N[C@@H](CC(=O)O)C(=O)N[C@H]1CCC(=O)NCCCC[C@@H](C(=O)N[C@@H](CCCNC(=N)N)C(N)=O)NC(=O)[C@H](CC(C)C)NC(=O)[C@H](Cc2ccc3ccccc3c2)NC(=O)[C@H](Cc2c[nH]c3ccccc23)NC(=O)[C@@H]2CSCC(=O)CSC[C@H](NC(=O)[C@H](CO)NC1=O)C(=O)N[C@@H](Cc1c[nH]c3ccccc13)C(=O)N[C@@H](CCC(N)=O)C(=O)N2` [Ref 17, [Ac]-DE(1c)SC(2a)WQC(2a)W[2-Nal]LK(1c)R-[NH2], reference compound] were, in that order, 0% and 0%.

B1: Ref 78 (peptide)
peptide: [3Amb]SCWQC[AEF][2Nal][αMeL]ER[3Pal]-NH2
modifications: lactam N-10; bridge 3-6; not fully specified (bridges); printed as [(3-Aminomethyl)benzoyl](1c)*SC(2a)WQC(2a)[Y(2-aminoethoxy)][2-Nal][2-Me-Leu]E(1c)R[3-(3-Pyridyl)-Ala]-[NH2]
Take B1: in data set [2], the “hIL-23 (pSTAT3) antagonist % inhibition” value amounted to 100% and the “hIL-23 (pSTAT3) antagonist IC50” value was 0.13 nM. For the same molecule, the % displacement (hIL-23R binding) in data set [3] was determined as 100%.

B2: Compound 23 (peptide)
peptide: [4‑Aminomethyl‑phenylacetyl]SEWF[Dab][AEF][2Nal][αMeL]E[Dab][3Pal]-NHMe
modifications: lactam N-10, 3-6
SMILES: CNC(=O)[C@H](Cc1cccnc1)NC(=O)[C@H](CCN)NC(=O)[C@@H]1CCC(=O)NCc2ccc(cc2)CC(=O)N[C@@H](CO)C(=O)N[C@H]2CCC(=O)NCC[C@H](NC(=O)[C@H](Cc3ccccc3)NC(=O)[C@H](Cc3c[nH]c4ccccc34)NC2=O)C(=O)N[C@@H](Cc2ccc(OCCN)cc2)C(=O)N[C@@H](Cc2ccc3ccccc3c2)C(=O)N[C@@](C)(CC(C)C)C(=O)N1
By IC50 is commonly meant the concentration at which inhibition is half-maximal. Read a low IC50 as greater potency in that assay. As for B2, in data set [2], the “hIL-23 (pSTAT3) antagonist % inhibition” value was 99% and the “hIL-23 (pSTAT3) antagonist IC50” value was 5.2 nM. For the same molecule, in data set [3], the % displacement (hIL-23R binding) is 97% and the 50% inhibitory concentration (IC50) was 0.12 nM.
On to [3Pal][βAla]SCWQC[AEF][2Nal][αMeL]E[dR]-NH2 (lactam N-11; linker 4-7 via 1,3‑dithio‑propan‑2‑one) [Compound 2], for which, in data set [3], the % displacement (hIL-23R binding) stood at 103%.
Still for that read-out and setting: the result for [4‑Aminomethyl‑phenylacetyl][NMeS]EWQ[Dab][AEF][2Nal][αMeL]E[Dab][3Pal]-NHMe (lactam (positions not given here); lactam 3-6; not fully specified (bridges)) [Compound 18] reads 96%.

B3: Ref 155 (peptide)
peptide: Ac-KTCWQC[AEF][2Nal][αMeL]E[Dab][3Pal]-NH2
modifications: lactam 1-10; bridge 3-6; not fully specified (bridges); printed as [Ac]-K(1c)TC(2a)WQC(2a)[Y(2-aminoethoxy)][2-Nal][2-Me-Leu]E(1c)[Dab][3-(3-Pyridyl)-Ala]-[NH2]
On to B3, for which, in data set [2], the “hIL-23 (pSTAT3) antagonist % inhibition” value turned out to be 100% and the “hIL-23 (pSTAT3) antagonist IC50” value was 31 pM. The molecule further showed a % displacement (hIL-23R binding) in data set [3] of 97%.

B4: Ref 82 (peptide)
peptide: [4‑Aminomethyl‑phenylacetyl]SCWQC[AEF][2Nal][αMeL]E[Dab]-NH2
modifications: lactam N-10; bridge 3-6; not fully specified (bridges); printed as [4-Aminomethyl-phenylacetyl](1c)*SC(2a)WQC(2a)[Y(2-aminoethoxy)][2-Nal][2-Me-Leu]E(1c)[Dab]-[NH2]
For B4, in data set [2], the “hIL-23 (pSTAT3) antagonist % inhibition” value is 97% and the “hIL-23 (pSTAT3) antagonist IC50” value came to 11 nM. The molecule also came in with a % displacement (hIL-23R binding) in data set [3] of 103%.

B5: Compound 21 (peptide)
peptide: [4‑Aminomethyl‑phenylacetyl]FEWQ[Dab][AEF][2Nal][αMeL]E[Dab][3Pal]-NHMe
modifications: lactam N-10, 3-6
SMILES: CNC(=O)[C@H](Cc1cccnc1)NC(=O)[C@H](CCN)NC(=O)[C@@H]1CCC(=O)NCc2ccc(cc2)CC(=O)N[C@@H](Cc2ccccc2)C(=O)N[C@H]2CCC(=O)NCC[C@H](NC(=O)[C@H](CCC(N)=O)NC(=O)[C@H](Cc3c[nH]c4ccccc34)NC2=O)C(=O)N[C@@H](Cc2ccc(OCCN)cc2)C(=O)N[C@@H](Cc2ccc3ccccc3c2)C(=O)N[C@@](C)(CC(C)C)C(=O)N1
For the molecule B5, in data set [2], the “hIL-23 (pSTAT3) antagonist % inhibition” value was found to be 102% and the “hIL-23 (pSTAT3) antagonist IC50” value came out at 63 pM. Further, in data set [3], the % displacement (hIL-23R binding) turned out to be 95%.

B6: Ref 120 (peptide)
peptide: [4‑Aminomethyl‑phenylacetyl]SCWQC[AEF][2Nal][αMeL]E[Dab][3Pal]-NH2
modifications: lactam N-10; bridge 3-6; not fully specified (bridges); printed as [4-Aminomethyl-phenylacetyl](1c)*SC(2a)WQC(2a)[Y(2-aminoethoxy)][2-Nal][2-Me-Leu]E(1c)[Dab][3-(3-Pyridyl)-Ala]-[NH2]
Turning to B6, in data set [2], the “hIL-23 (pSTAT3) antagonist % inhibition” value was determined as 101% and the “hIL-23 (pSTAT3) antagonist IC50” value came to 54 pM. In data set [3], this molecule had a % displacement (hIL-23R binding) of 94%.

B7: Compound 22 (peptide)
peptide: [4‑Aminomethyl‑phenylacetyl]SEWA[Dab][AEF][2Nal][αMeL]E[Dab][3Pal]-NHMe
modifications: lactam N-10, 3-6
SMILES: CNC(=O)[C@H](Cc1cccnc1)NC(=O)[C@H](CCN)NC(=O)[C@@H]1CCC(=O)NCc2ccc(cc2)CC(=O)N[C@@H](CO)C(=O)N[C@H]2CCC(=O)NCC[C@H](NC(=O)[C@H](C)NC(=O)[C@H](Cc3c[nH]c4ccccc34)NC2=O)C(=O)N[C@@H](Cc2ccc(OCCN)cc2)C(=O)N[C@@H](Cc2ccc3ccccc3c2)C(=O)N[C@@](C)(CC(C)C)C(=O)N1
For the molecule B7, in data set [2], the “hIL-23 (pSTAT3) antagonist % inhibition” value turned out to be 101% and the “hIL-23 (pSTAT3) antagonist IC50” value amounted to 3.4 nM. In addition, in data set [3], the % displacement (hIL-23R binding) turned out to be 96% and the IC50 was determined as 0.035 nM.
With [4‑Aminomethyl‑phenylacetyl]SEWQ[Dab][AEF][2Nal][αMeL]E[Dab]H[3Pal]-NH2 (lactam (positions not given here); lactam 3-6; not fully specified (bridges)) [Compound 12], in data set [2], the “hIL-23 (pSTAT3) antagonist % inhibition” value worked out at 100% and the “hIL-23 (pSTAT3) antagonist IC50” value worked out at 3.5 nM. The molecule also returned a % displacement (hIL-23R binding) in data set [3] of 104%.
